The values below come from patent US6387638.

Positions count from the first letter of the chain named. Numbers in names are those of the source. Ends that are not written are not given here.

The target of assay [1] is T1, ErbB-3 receptor-Ig fusion (homodimer) (human, UniProt P21860 20-643; P21860 20-636). The assay can be described thus: phage ELISA, soluble ErbB-3-Ig as competitor.
Assay [2] has as its target T2, ErbB-4 receptor-Ig fusion (homodimer) (human, UniProt Q15303 26-651; Q15303 26-640). The assay can be described thus: phage ELISA, soluble ErbB-4-Ig as competitor. (In an ELISA, binding on a coated surface is turned into a signal by an enzyme label.)
The target of assay [3] is T1, ErbB-3 receptor-Ig fusion (homodimer). The assay can be described thus: phage ELISA, soluble ErbB-3-Ig as competitor. This is another data set of the same source.
The target is the same in assay [4]. The assay can be described thus: displacement of 125I-HRG-β1 177-244 from plate-bound ErbB-3-Ig. In general terms: In a radioligand displacement assay an active substance lowers the binding of a labelled ligand.
The target of assay [5] is T2, ErbB-4 receptor-Ig fusion (homodimer). The assay can be described thus: displacement of 125I-HRG-β1 177-244 from plate-bound ErbB-4-Ig.

T2 sequence (Q15303 other isoform, or with tags, fused parts or gaps): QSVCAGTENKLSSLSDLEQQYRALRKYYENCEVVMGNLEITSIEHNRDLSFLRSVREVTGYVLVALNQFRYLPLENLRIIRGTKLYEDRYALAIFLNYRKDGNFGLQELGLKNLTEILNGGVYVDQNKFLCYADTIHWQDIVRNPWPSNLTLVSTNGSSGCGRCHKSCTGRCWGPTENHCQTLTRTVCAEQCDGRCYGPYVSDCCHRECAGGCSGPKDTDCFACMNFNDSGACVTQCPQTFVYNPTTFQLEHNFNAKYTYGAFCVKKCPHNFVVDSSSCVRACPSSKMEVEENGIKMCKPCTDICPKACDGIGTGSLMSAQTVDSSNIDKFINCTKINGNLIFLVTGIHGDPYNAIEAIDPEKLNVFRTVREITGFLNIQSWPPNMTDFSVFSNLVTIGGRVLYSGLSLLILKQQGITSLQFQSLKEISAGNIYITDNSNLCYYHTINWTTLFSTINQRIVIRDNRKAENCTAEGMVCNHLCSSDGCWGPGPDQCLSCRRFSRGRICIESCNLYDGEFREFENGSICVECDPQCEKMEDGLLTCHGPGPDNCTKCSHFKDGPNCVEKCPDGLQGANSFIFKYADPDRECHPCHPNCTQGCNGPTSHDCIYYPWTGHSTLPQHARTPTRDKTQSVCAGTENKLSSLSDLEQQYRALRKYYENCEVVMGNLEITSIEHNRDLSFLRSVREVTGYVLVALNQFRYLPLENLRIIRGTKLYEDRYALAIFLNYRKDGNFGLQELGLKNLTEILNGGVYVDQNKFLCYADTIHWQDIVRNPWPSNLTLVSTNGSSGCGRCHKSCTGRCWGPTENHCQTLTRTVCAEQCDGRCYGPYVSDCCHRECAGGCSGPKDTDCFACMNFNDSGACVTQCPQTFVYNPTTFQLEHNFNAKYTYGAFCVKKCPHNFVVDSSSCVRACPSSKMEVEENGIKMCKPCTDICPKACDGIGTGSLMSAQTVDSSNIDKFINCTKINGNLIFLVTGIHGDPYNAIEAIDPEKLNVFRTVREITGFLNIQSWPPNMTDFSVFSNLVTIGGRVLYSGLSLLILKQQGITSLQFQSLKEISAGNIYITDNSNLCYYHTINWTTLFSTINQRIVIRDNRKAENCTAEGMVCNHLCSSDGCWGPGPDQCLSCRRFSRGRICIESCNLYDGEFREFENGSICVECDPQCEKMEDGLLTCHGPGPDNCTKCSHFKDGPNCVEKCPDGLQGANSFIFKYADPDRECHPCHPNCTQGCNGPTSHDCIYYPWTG
T1 sequence (P21860 other isoform, or with tags, fused parts or gaps): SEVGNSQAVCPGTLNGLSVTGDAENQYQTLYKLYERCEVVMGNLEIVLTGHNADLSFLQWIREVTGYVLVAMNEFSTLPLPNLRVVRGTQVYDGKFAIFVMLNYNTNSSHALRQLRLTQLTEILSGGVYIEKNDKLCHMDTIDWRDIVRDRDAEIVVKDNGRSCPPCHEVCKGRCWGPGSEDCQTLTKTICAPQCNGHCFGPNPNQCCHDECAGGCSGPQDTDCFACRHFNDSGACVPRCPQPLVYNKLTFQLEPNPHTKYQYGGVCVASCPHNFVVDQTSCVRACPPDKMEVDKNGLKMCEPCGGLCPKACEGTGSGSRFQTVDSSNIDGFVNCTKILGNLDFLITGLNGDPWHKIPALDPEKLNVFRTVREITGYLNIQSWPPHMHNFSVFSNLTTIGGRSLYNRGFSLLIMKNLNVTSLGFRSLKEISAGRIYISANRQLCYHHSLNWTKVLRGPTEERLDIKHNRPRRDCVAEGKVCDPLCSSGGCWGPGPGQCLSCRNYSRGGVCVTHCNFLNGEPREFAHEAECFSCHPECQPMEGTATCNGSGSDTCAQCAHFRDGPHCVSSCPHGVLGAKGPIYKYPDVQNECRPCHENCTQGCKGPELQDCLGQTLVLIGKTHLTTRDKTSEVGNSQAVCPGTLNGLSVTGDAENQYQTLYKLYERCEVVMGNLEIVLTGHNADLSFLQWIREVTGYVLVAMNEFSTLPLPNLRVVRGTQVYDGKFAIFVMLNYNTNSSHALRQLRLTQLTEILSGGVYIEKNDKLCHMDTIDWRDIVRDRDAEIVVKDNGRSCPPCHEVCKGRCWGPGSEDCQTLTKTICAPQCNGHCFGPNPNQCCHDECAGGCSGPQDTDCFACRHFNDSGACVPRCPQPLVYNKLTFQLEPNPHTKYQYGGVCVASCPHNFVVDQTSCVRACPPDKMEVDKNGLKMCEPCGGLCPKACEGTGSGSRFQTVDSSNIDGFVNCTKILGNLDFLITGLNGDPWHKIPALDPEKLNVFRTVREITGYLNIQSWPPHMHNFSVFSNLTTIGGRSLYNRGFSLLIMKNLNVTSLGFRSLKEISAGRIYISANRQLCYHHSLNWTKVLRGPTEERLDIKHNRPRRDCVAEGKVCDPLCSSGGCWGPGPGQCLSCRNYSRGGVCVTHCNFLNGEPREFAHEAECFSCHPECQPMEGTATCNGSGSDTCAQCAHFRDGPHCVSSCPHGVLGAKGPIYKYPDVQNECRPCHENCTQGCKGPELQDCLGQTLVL

Regarding “HRG-β1 177-244 L179V, phage-displayed (Example 4 clone) (from UniProt P69168 265-424) (ligand)”, the EC50 Mut/WT in assay [1] is 1.5; in assay [2] it was 1.6. The like results for “HRG-β1 177-244 H178W with 228-231 replaced by Met, phage-displayed (Example 4 clone) (from UniProt P69168 265-424) (ligand)” were, in that order, 1.2 and 1.7. The like results for “HRG-β1 177-244 H178L with 228-231 replaced by Met, phage-displayed (Example 4 clone) (from UniProt P69168 265-424) (ligand)” were, in that order, 6.4 and 1.7. For “HRG-β1 177-244 H178D L179V, phage-displayed (Example 4 clone) (from UniProt P69168 265-424) (ligand)” the same measures were 2.2 and 2. In the case of “HRG-β1 177-244 R207P, phage-displayed (Example 4 clone) (from UniProt P69168 265-424) (ligand)”, the EC50 Mut/WT came to 6.1 in assay [1] and 1.3 in assay [2].

As to “HRG-β1 177-244 H178L, phage-displayed (Example 4 clone) (from UniProt P69168 265-424) (ligand)”, the EC50 Mut/WT in assay [1] came out at 1.4; in assay [2] it was 1.2. For “HRG-β1 177-244 H178E, phage-displayed (Example 4 clone) (from UniProt P69168 265-424) (ligand)” the same measures were 9.5 and 1.7.

B1: HRG-β1 EGF variant B5, phage-displayed (ligand)
chain: SHLVKCGWDREGFCVNGGECFMVKDLSNPSRYLCKCPNEFTGDRCQNYVIAS
modifications: not fully specified; cysteine pairing not given here
notes: pHRG8-g3 scaffold; not shown: Display carrier only: the (GGGS)3 linker and the M13 pIII C-terminal fragment from residue 323
For B1, the “EC50(wt)/EC50(mut)” value in assay [3] amounted to 26 ratio.

B2: HRG-β1 EGF variant B10, phage-displayed (ligand)
chain: B1 chain with G7D, W8K, D9S
modifications: not fully specified; cysteine pairing not given here
notes: as for B1
On to B2, for which the “EC50(wt)/EC50(mut)” value in assay [3] was found to be 9.3 ratio.

B3: combination variant HRG60, phage-displayed (ligand)
chain: B1 chain with W8E, D9E, F21Y, M22R, D25T
modifications: not fully specified; cysteine pairing not given here
notes: not shown: Display carrier only: (GGGS)3 linker and the M13 pIII C-terminal fragment from residue 323
In the case of B3, the “EC50(wt)/EC50(mut)” value in assay [3] was 63 ratio.

B4: combination variant HRG53, phage-displayed (ligand)
chain: B1 chain with W8E, D9E, F21Y, M22R, D25T, I50M
modifications: not fully specified; cysteine pairing not given here
notes: not shown: Display carrier: (GGGS)3 linker and M13 pIII C-terminal fragment from residue 323
For the molecule B4, in assay [3], the “EC50(wt)/EC50(mut)” value amounted to 26 ratio.

B5: combination variant HRG56, phage-displayed (ligand)
chain: B1 chain with W8E, D9E
modifications: not fully specified; cysteine pairing not given here
notes: as for B4
As to B5, in assay [3], the “EC50(wt)/EC50(mut)” value came out at 31 ratio.

B6: Trx-HRG-β1 146-244 S177A fusion (soluble) (ligand)
chain: AYVSSESPIRISVSTEGANTSSSTSTSTTGTAHLVKCAEKEKTFCVNGGECFMVKDLSNPSRYLCKCPNEFTGDRCQNYVMASFYKHLGIEFMEAEELY
Broadly, the EC50 is the concentration at which the effect is half-maximal. A high value points to lower potency in that assay. Consider B6, for which the EC50 in assay [4] stood at 129 nM; in assay [5] it was 54.6 nM.

B7: Trx-HRG-β1 146-244 N192A fusion (soluble) (ligand)
chain: B6 chain with A32S, N47A
B7: the EC50 is 1640 nM in assay [4] and 696 nM in assay [5].

B8: Trx-HRG-β1 146-244 K200A fusion (soluble) (ligand)
chain: B6 chain with A32S, K55A
As to B8, the EC50 in assay [4] came out at 45.4 nM; in assay [5], 16.9 nM.

B9: Trx-HRG-β1 146-244 H178A fusion (soluble) (ligand)
chain: B6 chain with A32S, H33A
For B9, the EC50 in assay [4] turned out to be 476 nM; in assay [5], 138 nM.

B10: Trx-HRG-β1 146-244 L179A fusion (soluble) (ligand)
chain: B6 chain with A32S, L34A
As to B10, the EC50 came out at 394 nM in assay [4] and 51.7 nM in assay [5].

B11: Trx-HRG-β1 146-244 G194A fusion (soluble) (ligand)
chain: B6 chain with A32S, G49A
For the molecule B11, the EC50 in assay [4] turned out to be 1210 nM; in assay [5] it was 275 nM.

B12: Trx-HRG-β1 146-244 G193A fusion (soluble) (ligand)
chain: B6 chain with A32S, G48A
Regarding B12, the values for the EC50 in assay [4] and in assay [5] were 26.9 nM and 76.3 nM, respectively.

B13: Trx-HRG-β1 146-244 T217A fusion (soluble) (ligand)
chain: B6 chain with A32S, T72A
On to B13, for which the EC50 is 145 nM in assay [4] and 32.7 nM in assay [5].

B14: Trx-HRG-β1 146-244 P205A fusion (soluble) (ligand)
chain: B6 chain with A32S, P60A
Take B14: the values for the EC50 in assay [4] and in assay [5] were 39.5 nM and 34.2 nM, respectively.

B15: Trx-HRG-β1 146-244 R207A fusion (soluble) (ligand)
chain: B6 chain with A32S, R62A
Take B15: the EC50 in assay [4] was 245 nM; in assay [5] it was 24.3 nM.

B16: Trx-HRG-β1 146-244 F189A fusion (soluble) (ligand)
chain: B6 chain with A32S, F44A
Regarding B16, the values for the EC50 in assay [4] and in assay [5] were 975 nM and 565 nM, respectively.

B17: Trx-HRG-β1 146-244 E195A fusion (soluble) (ligand)
chain: B6 chain with A32S, E50A
Turning to B17, the figures for the concentration giving a half-maximal response (EC50) in assay [4] and in assay [5] were 42 nM and 13.2 nM, respectively.

B18: HRG90: HRG-β1 EGF Met226Ile, phage-displayed (ligand, phage M13)
chain: SHLVKCAEKEKTFCVNGGECFMVKDLSNPSRYLCKCPNEFTGDRCQNYVIASGGGSGGGSGGGSNSQMAQVGDGDNSPLMNNFRQYLPSLPQSVECRPFVFSAGKPYEFSIDCDKINLFRGVFAFLLYVATFMYVFSTFANILRNKES
notes: range 323-end
In the case of B18, in assay [3], the “EC50(wt)/EC50(mut)” value was 6.3 ratio.

B19: combination variant HRG54, phage-displayed (ligand)
chain: SHLVKCGEEREGFCVNGGECFMVKDYGYLMCKCPNEFTGDRCQNYVMAS
modifications: not fully specified; cysteine pairing not given here
notes: as for B4
As for B19, the “EC50(wt)/EC50(mut)” value in assay [3] turned out to be 12 ratio.

B20: combination variant HRG55, phage-displayed (ligand)
chain: B19 chain with F21Y, M22R, D25T
modifications: not fully specified; cysteine pairing not given here
notes: as for B4
B20: in assay [3], the “EC50(wt)/EC50(mut)” value came to 13 ratio.

B21: combination variant HRG62, phage-displayed (ligand)
chain: B19 chain with F21Y, M22R, D25T, M47I
modifications: not fully specified; cysteine pairing not given here
notes: as for B3
For the molecule B21, the “EC50(wt)/EC50(mut)” value in assay [3] was 32 ratio.

B22: combination variant HRG61, phage-displayed (ligand)
chain: B19 chain with M47I
modifications: not fully specified; cysteine pairing not given here
notes: as for B3
With B22, the “EC50(wt)/EC50(mut)” value in assay [3] was determined as 29 ratio.

B23: HRG-β1 EGF variant E3, phage-displayed (ligand)
chain: SHLVKCAEKEKTFCVNGGECFMVKDYRYRMCKCPNEFTGDRCQNYVIAS
modifications: not fully specified; cysteine pairing not given here
notes: not shown: Display carrier only: the (GGGS)3 linker and the M13 pIII C-terminal fragment from residue 323
Turning to B23, the “EC50(wt)/EC50(mut)” value in assay [3] was 16 ratio.

B24: combination variant HRG71, phage-displayed (ligand)
chain: B23 chain with F21Y, M22R, D25T, R27G, R29L, N44H
modifications: not fully specified; cysteine pairing not given here
notes: as for B3
In the case of B24, the “EC50(wt)/EC50(mut)” value in assay [3] came out at 79 ratio.

B25: HRG-β1 EGF variant E6, phage-displayed (ligand)
chain: B23 chain with Y26T, R27H, I47M
modifications: not fully specified; cysteine pairing not given here
notes: as for B23
B25: the “EC50(wt)/EC50(mut)” value in assay [3] is 6.6 ratio.

B26: combination variant HRG57, phage-displayed (ligand)
chain: B23 chain with F21Y, M22R, D25T, R27G, R29L, I47M
modifications: not fully specified; cysteine pairing not given here
notes: as for B4
B26: the “EC50(wt)/EC50(mut)” value in assay [3] turned out to be 24 ratio.

B27: combination variant HRG48, phage-displayed (ligand)
chain: B23 chain with R27G, R29L
modifications: not fully specified; cysteine pairing not given here
notes: as for B4
On to B27, for which the “EC50(wt)/EC50(mut)” value in assay [3] worked out at 49 ratio.

B28: HRG-β1 EGF variant D1, phage-displayed (ligand)
chain: SHLVKCAEKEKTFCVNGGECYKVRILSNPSRYLCKCPNEFTGDRCQNYVIAS
modifications: not fully specified; cysteine pairing not given here
notes: as for B1
In the case of B28, the “EC50(wt)/EC50(mut)” value in assay [3] stood at 11 ratio.

B29: combination variant HRG59, phage-displayed (ligand)
chain: B28 chain with K22R, R24K, I25T
modifications: not fully specified; cysteine pairing not given here
notes: as for B4
Consider B29, for which the “EC50(wt)/EC50(mut)” value in assay [3] turned out to be 26 ratio.

B30: HRG-β1 EGF variant D10, phage-displayed (ligand)
chain: B28 chain with K22M, R24K, I25T, I50M
modifications: not fully specified; cysteine pairing not given here
notes: as for B1
On to B30, for which the “EC50(wt)/EC50(mut)” value in assay [3] amounted to 2.1 ratio.
